Earlier results, collected in doi:10.1101/2024.11.09.622800.
Like-named read-outs stand apart in the source and are kept apart here.

Experiments:
[1] = target: Asp85 (UniProt position 98, WARYADWLFTT)
[2] = target: Asp75 (UniProt position 122, TWREADINYTS)
[3] = target: Cys48 (UniProt position 48, SLKASCLYGQL)
[4] = target: Glu325 (UniProt position 325, TLHMFEVPFLL)
[5] = target: Lys132 (UniProt position 214, KSEAQKKKEKL); experiment: stability
[6] = target: Asp118 (UniProt position 200, YVYKPDNTHEQ); experiment: stability
[7] = target: Asp41 (UniProt position 123, LLLVDDPETKH); experiment: stability
[8] = target: Asp26 (UniProt position 26, KLVVVDFSATW)
[9] = target: Glu172 (UniProt position 200, QVMATEGYQSS)

## Bacteriorhodopsin (Halobacterium salinarum (not stated in the article))
[1]; conformational state associated by the authors with PDB 1IW6
  pKa: 7.2
[1]; conformational state associated by the authors with PDB 1UCQ (retinal forms a salt bridge with Asp85)
  pKa: 2.6

## Barnase (Bacillus amyloliquefaciens (not stated in the article))
[2]
  pKa: 3.1

## Glutathione S-transferase (PDB 5X79)
[3]
  pKa: 3.7

## Lactose permease LacY (Escherichia coli (not stated in the article))
[4]
  pKa: 10.5

## Staphylococcal nuclease (SNase) A132K variant (Staphylococcus aureus; A132K)
[5]
  pKa: 10.4

## Staphylococcal nuclease (SNase) N118D variant (Staphylococcus aureus; N118D)
[6]
  pKa: 7.0

## Staphylococcal nuclease (SNase) T41D variant (Staphylococcus aureus; T41D)
[7]
  pKa: ∼4

## Thioredoxin (Homo sapiens)
[8]; oxidized
  pKa: 8.1
[8]; reduced
  pKa: 9.9

## Xylanase (endo-1,4-beta-xylanase), wild type (Bacillus circulans (not stated in the article))
[9]
  pKa: 6.7

## Xylanase, mutant with Glu78 covalently linked to substrate (PDB 3VZO) (Bacillus circulans (not stated in the article); not stated (the article says only that 'another nearby residue is mutated'))
[9]; Glu78 covalently linked to substrate (covalent intermediate), nearby residue mutated
  pKa: 2.8
